One test deals with Reck-CK-Fc. The test can be described thus: Isothermal titration calorimetry (ITC) of synthetic Wnt linker peptides into recombinant Reck-CK-Fc. In kind it is binding. As to the method:
Reck-CK-Fc fusion proteins were recovered in serum-free FreeStyle 293 Expression Medium (Thermo Fisher Scientific, Waltham, Mass.) from the supernatant of HEK293T cell cultures 72 h post transfection with Lipofectamine 2000 (Life Technologies, Carlsbad, Calif.). After collection, the supernatants were either concentrated 50 times by centrifugation (GE Healthcare, Little Chalfont, UK) or submitted to Protein G affinity purification (Protein G Sepharose 4 Fast Flow, Sigma-Aldrich, St. Louis, Mo.). Protein purity was assessed using Coomassie blue staining after PAGE. Synthetic Wnt linker peptides were obtained from Chinapeptide Co., Ltd at purities over 90%.
ITC titrations were carried out on an Affinity ITC (TA Instruments). Prior to the measurement, Reck-CK-Fc and all Reck-CK-Fc fusions were dialyzed to Tris-NaCl buffer (50 mM Tris pH8, 300 mM NaCl). In each case Wnt-derived peptides were prepared with buffer from the last step of protein dialysis. The samples were filtered and degassed before being examined in the calorimeter and the titrations were performed 25° C. All the experiments consisted of injection of constant volumes of 2 μL of titrant into the cell (200 μL) with a stirring rate of 75 rpm. Nominal sample concentrations were between 20 μM and 40 μM in the cell and 400 μM to 1.0 mM in the syringe. Actual sample concentrations were determined after dialysis or buffer exchange by measurement of their absorption at 280 nm or the BCA method. All data were analyzed using the MicroCal Origin ITC 7.0, and NanoAnalyze software packages.
On the technique in general: In ITC the heat of successive injections is recorded.

For the next test, the target named is T1, HA-Reck (Homo sapiens, UniProt O95980).
T1 construct: expressed in transfected cells; host or cells: GPR124-/-;RECK-/- HEK293 (STF) cells, pCS2 / CMV promoter
T1 sequence (O95980 23-942): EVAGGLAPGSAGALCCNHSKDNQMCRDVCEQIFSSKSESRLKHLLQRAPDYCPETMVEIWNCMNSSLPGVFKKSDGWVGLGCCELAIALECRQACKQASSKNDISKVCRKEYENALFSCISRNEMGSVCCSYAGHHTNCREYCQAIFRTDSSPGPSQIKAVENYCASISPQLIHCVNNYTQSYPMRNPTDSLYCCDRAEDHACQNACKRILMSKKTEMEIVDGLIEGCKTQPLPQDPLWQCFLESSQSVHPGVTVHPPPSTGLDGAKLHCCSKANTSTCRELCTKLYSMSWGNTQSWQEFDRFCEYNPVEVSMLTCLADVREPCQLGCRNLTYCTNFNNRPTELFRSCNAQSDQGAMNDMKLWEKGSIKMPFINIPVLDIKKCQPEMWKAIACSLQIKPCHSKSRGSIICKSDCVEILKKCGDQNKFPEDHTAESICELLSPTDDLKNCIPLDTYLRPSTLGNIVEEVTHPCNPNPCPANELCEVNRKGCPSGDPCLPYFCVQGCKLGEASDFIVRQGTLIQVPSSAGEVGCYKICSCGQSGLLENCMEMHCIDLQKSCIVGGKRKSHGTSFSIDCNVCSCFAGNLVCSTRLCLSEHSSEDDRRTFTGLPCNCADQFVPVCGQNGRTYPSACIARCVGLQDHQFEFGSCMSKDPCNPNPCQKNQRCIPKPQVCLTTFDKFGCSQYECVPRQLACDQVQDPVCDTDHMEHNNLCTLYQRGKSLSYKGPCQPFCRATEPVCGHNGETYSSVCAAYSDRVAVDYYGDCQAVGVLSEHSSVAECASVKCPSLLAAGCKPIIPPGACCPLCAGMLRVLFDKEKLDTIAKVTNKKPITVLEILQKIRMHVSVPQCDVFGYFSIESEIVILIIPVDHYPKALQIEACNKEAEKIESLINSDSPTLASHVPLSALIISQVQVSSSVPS
Kind of test: Proximity ligation assay (PLA), anti-V5/anti-HA, V5-tagged Wnt ligand and HA-Reck in GPR124−/−;RECK−/− cells. The test is classed as cell-based. As to conditions: GPR124−/−;RECK−/− cells co-expressing HA-Reck. The procedure: (§1) 1.7. Immunofluorescence and Proximity Ligation Assay Cells were grown in glass-coated chambers (IBIDI, Martinsried, Germany) and transfected after 24 h with Lipofectamine 2000 (Life Technologies, Carlsbad, Calif.). Cells were fixed with 4% paraformaldehyde for 10 min at room temperature (RT) 48 h post transfection. For immunofluorescence staining (IF), cells were blocked in 1% BSA-PBS for 30 min before being exposed to primary antibodies for 1 h at RT. After three PBS washes, cells were incubated with secondary antibodies for 1 h at RT. For anti-V5 staining of Wnt ligands, cells were additionally washes for 10 min in PBS 0.1% Tween 20 before incubation with the secondary antibody solution. For the proximity ligation assay (PLA) (Sigma-Aldrich, St. Louis, Mo.), cells were blocked for 30 min at 37° C. with the Blocking solution provided by the manufacturer before being incubated with the primary antibodies for 1 h at RT. Cells were washed three times and incubated with the PLA probes anti-rabbit PLUS and anti-mouse MINUS for 1 h at 37° C. After two PBS washes, cells were incubated with the Duolink Ligation solution for 30 min at 37° C. After two PBS washes, cells were incubated with the Duolink Amplification solution for 100 min at 37° C. The following antibodies were used: mouse monoclonal anti-V5 (R96025, Life Technologies, Carlsbad, Calif.) at 1:500 for IF and PLA, purified polyclonal rabbit anti-HA (H6908, St. Louis, Mo.) at 1:400 for IF and PLA and anti-mouse Alexa488-conjugated secondary antibody (Thermo Fisher Scientific, Waltham, Mass.) at 1:5000. Cells were stained for 2 min with Hoechst diluted to 10 μg ml-1 in PBS.
Cells and zebrafish embryos were imaged with an LSM710 confocal microscope and images were processed in ImageJ. Images of eye fusion phenotypes were taken on Leica M165 FC. Representations of brain vasculature were generated using Imaris software (BitPlane, Zurich, Switzerland). The percentage of PLA positive (PLA+) areas and DAPI positive (DAPI+) areas were calculated using ImageJ on images containing about 50 to 100 cells. The PLA+ area was measured after manually applying a fixed threshold. The DAPI+ area was measured after applying the “default” thresholding method in Image J.

Test [1] relates to plasma membrane of HEK293 cells. The test can be described thus: Anti-V5 immunostaining of transiently expressed V5-tagged Wnt ligands in non-permeabilized cells. In kind it is cell-based, human. The procedure:
as §1, with “After two PBS washes, cells were incubated with the Duolink Amplification solution for 100 min at 37° C. The following antibodies were used: mouse monoclonal anti-V5 (R96025, Life Technologies, Carlsbad, Calif.) at 1:500 for IF and PLA, purified polyclonal rabbit anti-HA (H6908, St. Louis, Mo.) at 1:400 for IF and PLA and anti-mouse Alexa488-conjugated secondary antibody (Thermo Fisher Scientific, Waltham, Mass.) at 1:5000. Cells were stained for 2 min with Hoechst diluted to 10 μg ml-1 in PBS.” left out
It was determined how Wnt7 is specifically recognized within this signaling module, a question inherently complicated by the ubiquitous expression of Frizzled receptors and their Lrp5/6 co-receptors in vertebrate cells. […]

Ends that are not written are not given here.

With “pWnt3a: control equivalent linker peptide of Wnt3a (MVVEKHRESRGWVETLRPRYTYFKVPTER) [reference compound]”, the “binding to Reck-CK-Fc (ITC)” value with Reck-CK-Fc (25° C.) was “no binding”.
As for VEVVRASRLRQPTFLRIKQLRSYQKPMET [pWnt7b], the Kd on Reck-CK-Fc (25° C., Tris-NaCl buffer pH8, read-out: affinity of binding to Reck (ITC)) came to 1200 nM. Also, the “Reck CK motifs required for binding (ITC with Reck-CK-Fc deletion variants)” value in the test on Reck-CK-Fc (Reck-CK^ΔCK1-Fc to Reck-CK^ΔCK5-Fc) is “required Reck CK4 and CK5, but not CK1, CK2 and CK3”.

B1: Wnt71-237: smaller NTD variant lacking the linker region (protein)
chain: LGASIICNKIPGLAPRQRAICQSRPDAIIVIGEGSQMGLDECQFQFRNGRWNCSALGERTVFGKELKVGSREAAFTYAIIAAGVAHAITAACTQGNLSDCGCDKEKQGQYHRDEGWKWGGCSADIRYGIGFAKVFVDAREIKQNARTLMNLHNNEAGRKILEENMKLECKCHGVSGSCTTKTCWTTLPQFRELGYVLKDKYNEAVH
modifications: left off: small tags and cut ends
notes: smaller NTD variant lacking the linker region
Turning to B1, the “Reck binding (anti-V5/anti-HA PLA signal)” value (“Reck binding” below) with HA-Reck is on record as “did not bind Reck”.

B2: Wnt7a-V5: V5-tagged Wnt7a ligand transiently expressed in cells (protein)
chain: LGASIICNKIPGLAPRQRAICQSRPDAIIVIGEGSQMGLDECQFQFRNGRWNCSALGERTVFGKELKVGSREAAFTYAIIAAGVAHAITAACTQGNLSDCGCDKEKQGQYHRDEGWKWGGCSADIRYGIGFAKVFVDAREIKQNARTLMNLHNNEAGRKILEENMKLECKCHGVSGSCTTKTCWTTLPQFRELGYVLKDKYNEAVHVEPVRASRNKRPTFLKIKKPLSYRKPMDTDLVYIEKSPNYCEEDPVTGSVGTQGRACNKTAPQASGCDLMCCGRGYNTHQYARVWQCNCKFHWCCYVKCNTCSERTEMYTCK
modifications: left off: small tags and cut ends
notes: V5-tagged Wnt7a ligand transiently expressed in cells
In the case of B2, the “immunodetection at the plasma membrane” value is listed as “not at those of GPR124^−/−;RECK^−/− cells” in test [1] (GPR124−/−;RECK−/− cells); “could be immunodetected at the plasma membrane” in test [1] (WT, FZ1-10−/− and LRP5−/−;LRP6−/− cells).

B3: Wnt7a′: garbled label of a Wnt7a domain variant, probably the C-terminal domain alone (protein)
chain: LGASIICNKIPGLAPRQRAICQSRPDAIIVIGEGSQMGLDECQFQFRNGRWNCSALGERTVFGKELKVGSREAAFTYAIIAAGVAHAITAACTQGNLSDCGCDKEKQGQYHRDEGWKWGGCSADIRYGIGFAKVFVDAREIKQNARTLMNLHNNEAGRKILEENMKLECKCHGVSGSCTTKTCWTTLPQFRELGYVLKDKYNEAVHVEPVRASRNKRPTFLKIKKPLSYRKPMDTDLVYIEKSPNYCEEDPVTGSVGTQGRACNKTAPQASGCDLMCCGRGYNTHQYARVWQCNCKFHWCCYVKCNTCSERTEMYTCK
B3: the “Reck binding” value with HA-Reck is “did not”.

B4: Wnt7a^S206A: mutant Wnt7a incapable of being palmitoylated at Serine 206 (protein)
chain: LGASIICNKIPGLAPRQRAICQSRPDAIIVIGEGSQMGLDECQFQFRNGRWNCSALGERTVFGKELKVGSREAAFTYAIIAAGVAHAITAACTQGNLSDCGCDKEKQGQYHRDEGWKWGGCSADIRYGIGFAKVFVDAREIKQNARTLMNLHNNEAGRKILEENMKLECKCHGVAGSCTTKTCWTTLPQFRELGYVLKDKYNEAVHVEPVRASRNKRPTFLKIKKPLSYRKPMDTDLVYIEKSPNYCEEDPVTGSVGTQGRACNKTAPQASGCDLMCCGRGYNTHQYARVWQCNCKFHWCCYVKCNTCSERTEMYTCK
modifications: left off: small tags and cut ends
Regarding B4, the “Reck binding” value with HA-Reck is listed as “bound Reck efficiently”.

B5: Wnt7a^1-212: smaller NTD variant lacking the linker region (protein)
chain: LGASIICNKIPGLAPRQRAICQSRPDAIIVIGEGSQMGLDECQFQFRNGRWNCSALGERTVFGKELKVGSREAAFTYAIIAAGVAHAITAACTQGNLSDCGCDKEKQGQYHRDEGWKWGGCSADIRYGIGFAKVFVDAREIKQNARTLMNLHNNEAGRKILEENMKLECKCHGVSGSCTTK
modifications: left off: small tags and cut ends
notes: as for B1
Consider B5, for which, in the test with HA-Reck, the “Reck binding” value is “did not bind Reck”.

Source of the values: patent US11840557B2, “Wnt7 variants capable of activating g-protein coupled receptor (Gpr)124/Reck/frizzled/lipoprotein receptor-related protein (LRP)-mediated Wnt signaling” (UNIVERSITÉ LIBRE DE BRUXELLES, priority 2018, dated 2023).
